The source of these data is paper PMC12990809.

Assay in all cases: pulldown
One data set concerns the target PABPC4 (Homo sapiens) (UniProt Q13310). The conditions noted are these: 20 nM protein, 1.5 uM RNA pool; 20 mM HEPES pH 7.8, 70 mM KCl, 10 mM NaCl, 10% glycerol, 2 mM DTT, 0.1 ug/uL BSA; 30 min, 4 C (protocol of this paper; not …); cited from earlier work.
Another data set deals with T1, QKI (Homo sapiens) (UniProt Q96PU8).
T1 sequence: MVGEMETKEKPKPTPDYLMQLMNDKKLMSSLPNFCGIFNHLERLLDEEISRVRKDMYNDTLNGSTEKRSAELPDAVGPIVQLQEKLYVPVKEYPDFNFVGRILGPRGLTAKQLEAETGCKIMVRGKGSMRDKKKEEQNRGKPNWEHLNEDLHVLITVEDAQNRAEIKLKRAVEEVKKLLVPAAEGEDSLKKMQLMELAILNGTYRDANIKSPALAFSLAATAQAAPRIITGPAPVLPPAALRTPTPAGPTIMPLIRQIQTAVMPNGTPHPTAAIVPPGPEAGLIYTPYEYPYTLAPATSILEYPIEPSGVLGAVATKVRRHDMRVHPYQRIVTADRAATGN
Particulars: 20 nM protein, 1.5 uM RNA pool; 20 mM HEPES pH 7.8, 70 mM KCl, 10 mM NaCl, 10% glycerol, 2 mM DTT, 0.1 ug/uL BSA; 30 min, 4 C (protocol of this paper; not …); cited from earlier work.

The target in another data set is T2, RBM28 (Homo sapiens) (UniProt Q9NW13).
T2 sequence: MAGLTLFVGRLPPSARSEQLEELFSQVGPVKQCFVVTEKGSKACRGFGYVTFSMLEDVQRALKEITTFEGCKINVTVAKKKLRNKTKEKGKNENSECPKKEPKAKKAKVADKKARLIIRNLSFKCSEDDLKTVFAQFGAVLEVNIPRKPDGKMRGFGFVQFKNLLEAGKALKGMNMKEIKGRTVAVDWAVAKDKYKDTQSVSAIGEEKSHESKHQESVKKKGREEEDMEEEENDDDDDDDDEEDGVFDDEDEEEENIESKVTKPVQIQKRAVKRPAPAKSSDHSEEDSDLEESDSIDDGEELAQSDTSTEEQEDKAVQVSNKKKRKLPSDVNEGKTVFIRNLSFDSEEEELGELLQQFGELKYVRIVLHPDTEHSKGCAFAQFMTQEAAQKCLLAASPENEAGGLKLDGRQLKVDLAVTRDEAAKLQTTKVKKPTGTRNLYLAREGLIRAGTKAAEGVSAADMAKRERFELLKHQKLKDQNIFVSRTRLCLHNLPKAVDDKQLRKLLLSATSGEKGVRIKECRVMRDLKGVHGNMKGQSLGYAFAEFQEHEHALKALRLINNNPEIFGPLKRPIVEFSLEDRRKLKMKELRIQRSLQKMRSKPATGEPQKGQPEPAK
The conditions noted are these: 20 nM protein, 1.5 uM RNA pool; 20 mM HEPES pH 7.8, 70 mM KCl, 10 mM NaCl, 10% glycerol, 2 mM DTT, 0.1 ug/uL BSA; 30 min, 4 C (protocol of this paper; not …); cited from earlier work.

The target of data set [1] is hnrpkl (Tetraodon nigroviridis) (UniProt H3CQ29). Particulars: 20 nM protein, 1.5 uM RNA pool; 20 mM HEPES pH 7.8, 70 mM KCl, 10 mM NaCl, 10% glycerol, 2 mM DTT, 0.1 ug/uL BSA; 30 min, 4 C.
The target in another data set is RBM5 (Homo sapiens) (UniProt P52756). The conditions noted are these: 20 nM protein, 1.5 uM RNA pool; 20 mM HEPES pH 7.8, 70 mM KCl, 10 mM NaCl, 10% glycerol, 2 mM DTT, 0.1 ug/uL BSA; 30 min, 4 C (protocol of this paper; not …); cited from earlier work.
The next data set deals with MSI1 (Homo sapiens) (UniProt O43347). The conditions noted are these: 20 nM protein, 1.5 uM RNA pool; 20 mM HEPES pH 7.8, 70 mM KCl, 10 mM NaCl, 10% glycerol, 2 mM DTT, 0.1 ug/uL BSA; 30 min, 4 C (protocol of this paper; not …); cited from earlier work.
Data set [2] deals with T3, RBM24 (Tetraodon nigroviridis) (UniProt H3DM38).
T3 sequence: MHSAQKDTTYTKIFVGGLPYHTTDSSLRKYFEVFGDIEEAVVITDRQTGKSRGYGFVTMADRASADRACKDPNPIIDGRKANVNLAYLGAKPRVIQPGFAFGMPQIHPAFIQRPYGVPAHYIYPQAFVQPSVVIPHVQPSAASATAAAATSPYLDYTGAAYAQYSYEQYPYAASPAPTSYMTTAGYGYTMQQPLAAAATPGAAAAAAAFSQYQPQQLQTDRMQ
Particulars: 20 nM protein, 1.5 uM RNA pool; 20 mM HEPES pH 7.8, 70 mM KCl, 10 mM NaCl, 10% glycerol, 2 mM DTT, 0.1 ug/uL BSA; 30 min, 4 C.

For another data set, the target named is CELF4 (Homo sapiens) (UniProt Q9BZC1). Particulars: 20 nM protein, 1.5 uM RNA pool; 20 mM HEPES pH 7.8, 70 mM KCl, 10 mM NaCl, 10% glycerol, 2 mM DTT, 0.1 ug/uL BSA; 30 min, 4 C (protocol of this paper; not …); cited from earlier work.
Data set [3] has as its target T4, tiar-3 (Caenorhabditis elegans) (UniProt Q93194).
T4 sequence: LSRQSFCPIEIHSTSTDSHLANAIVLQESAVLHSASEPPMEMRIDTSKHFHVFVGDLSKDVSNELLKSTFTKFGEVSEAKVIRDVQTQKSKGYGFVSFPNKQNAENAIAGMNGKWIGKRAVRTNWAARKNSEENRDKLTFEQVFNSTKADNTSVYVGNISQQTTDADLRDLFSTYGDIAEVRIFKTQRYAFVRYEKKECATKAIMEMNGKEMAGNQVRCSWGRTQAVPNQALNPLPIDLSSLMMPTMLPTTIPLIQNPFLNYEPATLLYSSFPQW
The conditions noted are these: 20 nM protein, 1.5 uM RNA pool; 20 mM HEPES pH 7.8, 70 mM KCl, 10 mM NaCl, 10% glycerol, 2 mM DTT, 0.1 ug/uL BSA; 30 min, 4 C (protocol of this paper; not …); cited from earlier work.

Data set [4] addresses T5, msi (Drosophila melanogaster) (UniProt H9ZJL0).
T5 sequence: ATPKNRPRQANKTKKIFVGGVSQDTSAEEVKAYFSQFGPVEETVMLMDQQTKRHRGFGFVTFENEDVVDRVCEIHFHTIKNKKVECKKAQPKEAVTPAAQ
The conditions noted are these: 20 nM protein, 1.5 uM RNA pool; 20 mM HEPES pH 7.8, 70 mM KCl, 10 mM NaCl, 10% glycerol, 2 mM DTT, 0.1 ug/uL BSA; 30 min, 4 C (protocol of this paper; not …); cited from earlier work.

CELF4 (Homo sapiens), sequence (Q9BZC1 6-486): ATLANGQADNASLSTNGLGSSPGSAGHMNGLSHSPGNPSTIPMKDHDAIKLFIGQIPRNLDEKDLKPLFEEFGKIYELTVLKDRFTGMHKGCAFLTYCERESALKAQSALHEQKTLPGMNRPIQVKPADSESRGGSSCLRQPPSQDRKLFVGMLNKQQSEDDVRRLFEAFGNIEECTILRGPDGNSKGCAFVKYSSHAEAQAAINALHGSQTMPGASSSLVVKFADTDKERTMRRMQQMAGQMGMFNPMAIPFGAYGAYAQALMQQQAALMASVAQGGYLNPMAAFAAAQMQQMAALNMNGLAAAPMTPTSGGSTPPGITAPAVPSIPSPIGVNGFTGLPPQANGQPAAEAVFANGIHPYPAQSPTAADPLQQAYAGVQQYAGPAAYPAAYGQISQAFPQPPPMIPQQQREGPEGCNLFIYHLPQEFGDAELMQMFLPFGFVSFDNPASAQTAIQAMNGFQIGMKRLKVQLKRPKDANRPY
hnrpkl (Tetraodon nigroviridis), sequence (H3CQ29 entry or part of it): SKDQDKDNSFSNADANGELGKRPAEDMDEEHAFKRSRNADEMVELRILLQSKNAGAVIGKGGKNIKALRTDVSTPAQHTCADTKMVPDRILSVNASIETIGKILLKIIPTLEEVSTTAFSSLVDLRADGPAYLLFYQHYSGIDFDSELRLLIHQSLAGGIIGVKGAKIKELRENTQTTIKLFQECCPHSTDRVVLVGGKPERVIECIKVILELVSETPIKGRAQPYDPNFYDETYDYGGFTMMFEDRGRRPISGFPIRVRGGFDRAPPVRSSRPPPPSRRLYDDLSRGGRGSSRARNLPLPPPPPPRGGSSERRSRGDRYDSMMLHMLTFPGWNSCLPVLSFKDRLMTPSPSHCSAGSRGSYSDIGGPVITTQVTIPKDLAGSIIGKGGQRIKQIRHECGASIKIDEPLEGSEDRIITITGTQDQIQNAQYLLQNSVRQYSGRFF
MSI1 (Homo sapiens), sequence (O43347 1-230): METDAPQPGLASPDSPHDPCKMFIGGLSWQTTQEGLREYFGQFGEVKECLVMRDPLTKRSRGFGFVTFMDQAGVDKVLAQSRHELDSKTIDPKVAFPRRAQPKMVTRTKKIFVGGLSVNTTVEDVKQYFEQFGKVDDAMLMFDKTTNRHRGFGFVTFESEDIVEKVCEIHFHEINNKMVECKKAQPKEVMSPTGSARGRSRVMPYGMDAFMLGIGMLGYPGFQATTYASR
PABPC4 (Homo sapiens), sequence (Q13310 1-414): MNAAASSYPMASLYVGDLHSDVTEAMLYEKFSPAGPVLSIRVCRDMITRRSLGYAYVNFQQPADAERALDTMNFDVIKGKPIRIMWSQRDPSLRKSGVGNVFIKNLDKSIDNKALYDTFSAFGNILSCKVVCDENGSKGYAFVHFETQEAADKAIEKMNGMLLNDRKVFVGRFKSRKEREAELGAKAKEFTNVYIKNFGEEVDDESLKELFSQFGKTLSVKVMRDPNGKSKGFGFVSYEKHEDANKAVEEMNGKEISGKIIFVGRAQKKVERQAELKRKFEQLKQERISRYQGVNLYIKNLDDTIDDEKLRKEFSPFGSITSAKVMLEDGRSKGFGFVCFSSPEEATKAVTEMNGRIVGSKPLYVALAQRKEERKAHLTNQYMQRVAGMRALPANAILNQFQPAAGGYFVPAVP
RBM5 (Homo sapiens), sequence (P52756 1-546): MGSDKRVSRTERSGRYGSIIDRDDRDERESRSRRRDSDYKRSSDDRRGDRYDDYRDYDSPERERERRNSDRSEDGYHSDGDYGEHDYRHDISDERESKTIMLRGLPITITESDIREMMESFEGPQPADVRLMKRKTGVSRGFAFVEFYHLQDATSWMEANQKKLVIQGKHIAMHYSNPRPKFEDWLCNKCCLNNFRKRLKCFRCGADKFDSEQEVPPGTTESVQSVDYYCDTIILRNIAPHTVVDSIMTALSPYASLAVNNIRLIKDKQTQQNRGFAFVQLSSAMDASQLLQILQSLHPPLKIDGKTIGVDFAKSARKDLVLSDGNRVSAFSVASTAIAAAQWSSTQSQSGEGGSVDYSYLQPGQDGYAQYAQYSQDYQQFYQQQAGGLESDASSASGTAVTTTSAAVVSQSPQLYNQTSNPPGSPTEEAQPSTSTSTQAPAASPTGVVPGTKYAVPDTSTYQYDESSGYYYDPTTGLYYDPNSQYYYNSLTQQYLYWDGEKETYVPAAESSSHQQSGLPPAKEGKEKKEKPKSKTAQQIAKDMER

For AAAAAA [RNAcompete motif RNCMPT00043], the binding signal (z-score (mean of top ten 7-mers)) with PABPC4 (Homo sapiens) was 12.2.
As for ACUAACC [RNAcompete motif RNCMPT00047], the binding signal (z-score (mean of top ten 7-mers)) with QKI (Homo sapiens) was 6.41.
Regarding GAGUAG [RNAcompete motif RNCMPT00049], in the data set with RBM28 (Homo sapiens), the binding signal (z-score (mean of top ten 7-mers)) was 7.8.
In data set [1], AAACCCAA [RNAcompete motif RNCMPT01679] gave a binding signal (z-score (mean of top ten 7-mers)) of 6.12.
For GAAGGNA [RNAcompete motif RNCMPT00055], in the data set with RBM5 (Homo sapiens), the binding signal (z-score (mean of top ten 7-mers)) was 6.04.
In the case of UAGUUAG [RNAcompete motif RNCMPT00041], the binding signal (z-score (mean of top ten 7-mers)) with MSI1 (Homo sapiens) was 9.05.
Regarding GAGUGUG [RNAcompete motif RNCMPT01677], the binding signal (z-score (mean of top ten 7-mers)) in data set [2] was determined as 9.92.
For the substance UGUGUG [RNAcompete motif RNCMPT00004], in the data set with CELF4 (Homo sapiens), the binding signal (z-score (mean of top ten 7-mers)) is 7.26.
Take UUUUUU [RNAcompete motif RNCMPT00005]: the binding signal (z-score (mean of top ten 7-mers)) in data set [3] was 11.
For GUAGUU [RNAcompete motif RNCMPT00040], the binding signal (z-score (mean of top ten 7-mers)) in data set [4] was 12.5.
